How the values were obtained:
[1] = system: NH2-terminal fragment of ATRIP isolated from bacteria
[2] = system: Myc(3x)-tagged ATRIP
[3] = system: full length Flag-ATRIP protein purified from insect cells following baculovirus infection

Sequence of Flag-ATR (ATR tagged with a Flag epitope, overexpressed in 293/293T cells) (chain, as listed by the source): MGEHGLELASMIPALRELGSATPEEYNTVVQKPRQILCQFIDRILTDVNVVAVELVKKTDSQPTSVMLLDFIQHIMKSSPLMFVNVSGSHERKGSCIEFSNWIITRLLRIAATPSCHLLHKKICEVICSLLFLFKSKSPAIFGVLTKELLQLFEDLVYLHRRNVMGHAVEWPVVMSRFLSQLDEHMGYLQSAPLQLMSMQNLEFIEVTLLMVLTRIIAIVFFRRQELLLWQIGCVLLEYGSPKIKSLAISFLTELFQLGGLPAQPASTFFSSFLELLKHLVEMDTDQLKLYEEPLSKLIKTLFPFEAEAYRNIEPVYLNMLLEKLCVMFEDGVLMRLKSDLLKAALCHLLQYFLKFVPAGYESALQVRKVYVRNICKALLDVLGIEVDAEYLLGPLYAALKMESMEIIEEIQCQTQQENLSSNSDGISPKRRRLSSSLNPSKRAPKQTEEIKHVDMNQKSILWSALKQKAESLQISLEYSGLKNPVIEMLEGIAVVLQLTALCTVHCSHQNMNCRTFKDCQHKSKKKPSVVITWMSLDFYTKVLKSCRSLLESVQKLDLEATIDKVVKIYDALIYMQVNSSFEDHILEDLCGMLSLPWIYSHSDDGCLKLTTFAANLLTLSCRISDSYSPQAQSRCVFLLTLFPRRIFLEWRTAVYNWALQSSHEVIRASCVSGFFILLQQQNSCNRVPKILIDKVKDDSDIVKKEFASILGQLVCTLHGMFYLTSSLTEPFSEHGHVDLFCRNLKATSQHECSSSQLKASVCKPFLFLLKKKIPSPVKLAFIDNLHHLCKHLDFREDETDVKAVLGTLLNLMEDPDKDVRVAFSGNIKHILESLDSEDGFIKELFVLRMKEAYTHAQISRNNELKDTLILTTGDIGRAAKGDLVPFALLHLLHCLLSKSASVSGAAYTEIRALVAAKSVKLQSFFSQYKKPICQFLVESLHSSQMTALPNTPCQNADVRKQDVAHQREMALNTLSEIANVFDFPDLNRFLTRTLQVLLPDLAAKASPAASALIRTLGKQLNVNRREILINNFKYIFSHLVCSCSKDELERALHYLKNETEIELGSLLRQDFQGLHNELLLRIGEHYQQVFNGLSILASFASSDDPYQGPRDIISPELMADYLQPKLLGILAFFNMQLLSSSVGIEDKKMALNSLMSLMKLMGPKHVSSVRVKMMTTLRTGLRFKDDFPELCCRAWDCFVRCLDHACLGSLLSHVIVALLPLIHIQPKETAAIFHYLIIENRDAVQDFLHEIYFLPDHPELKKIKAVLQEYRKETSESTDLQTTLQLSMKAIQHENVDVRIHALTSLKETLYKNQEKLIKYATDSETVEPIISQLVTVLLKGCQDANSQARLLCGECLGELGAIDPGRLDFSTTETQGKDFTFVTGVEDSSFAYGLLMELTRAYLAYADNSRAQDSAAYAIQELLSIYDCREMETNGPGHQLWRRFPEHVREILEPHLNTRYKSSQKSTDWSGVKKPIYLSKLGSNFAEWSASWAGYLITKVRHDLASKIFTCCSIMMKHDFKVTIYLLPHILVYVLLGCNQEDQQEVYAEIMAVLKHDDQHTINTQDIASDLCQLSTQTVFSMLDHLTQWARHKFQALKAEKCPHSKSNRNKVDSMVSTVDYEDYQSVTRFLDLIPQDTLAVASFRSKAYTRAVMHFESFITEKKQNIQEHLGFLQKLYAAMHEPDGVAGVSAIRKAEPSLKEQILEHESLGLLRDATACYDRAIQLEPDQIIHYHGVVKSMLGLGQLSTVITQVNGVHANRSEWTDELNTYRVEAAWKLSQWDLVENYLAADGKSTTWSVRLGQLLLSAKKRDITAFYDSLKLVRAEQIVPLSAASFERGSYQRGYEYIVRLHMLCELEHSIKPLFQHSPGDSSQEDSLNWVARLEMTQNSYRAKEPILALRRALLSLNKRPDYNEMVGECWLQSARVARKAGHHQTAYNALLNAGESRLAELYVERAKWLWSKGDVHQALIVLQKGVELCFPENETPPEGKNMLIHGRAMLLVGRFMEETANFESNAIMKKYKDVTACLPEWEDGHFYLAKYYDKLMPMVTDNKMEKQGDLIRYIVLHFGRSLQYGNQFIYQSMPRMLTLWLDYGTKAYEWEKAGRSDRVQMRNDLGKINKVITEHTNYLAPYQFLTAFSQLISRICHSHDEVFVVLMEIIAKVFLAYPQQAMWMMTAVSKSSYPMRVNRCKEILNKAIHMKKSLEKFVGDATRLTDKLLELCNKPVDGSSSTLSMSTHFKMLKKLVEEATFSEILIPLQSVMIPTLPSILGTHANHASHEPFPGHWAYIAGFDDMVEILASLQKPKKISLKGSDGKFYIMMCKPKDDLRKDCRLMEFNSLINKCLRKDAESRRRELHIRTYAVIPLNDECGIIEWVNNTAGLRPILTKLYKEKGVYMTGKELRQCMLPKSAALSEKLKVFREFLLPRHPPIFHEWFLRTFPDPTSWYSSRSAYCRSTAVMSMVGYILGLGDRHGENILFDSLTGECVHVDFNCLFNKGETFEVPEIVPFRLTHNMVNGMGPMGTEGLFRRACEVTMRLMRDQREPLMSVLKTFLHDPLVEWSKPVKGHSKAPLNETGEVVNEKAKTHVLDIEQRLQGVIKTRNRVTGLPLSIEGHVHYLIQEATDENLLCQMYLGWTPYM
Sequence of NH2-terminal fragment of ATRIP isolated from bacteria (chain, as listed by the source): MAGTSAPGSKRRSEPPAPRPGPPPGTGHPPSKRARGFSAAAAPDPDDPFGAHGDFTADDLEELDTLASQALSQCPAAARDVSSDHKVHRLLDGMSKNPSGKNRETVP

Substance: Flag-ATR (ATR tagged with a Flag epitope, overexpressed in 293/293T cells)
- phosphorylation in a kinase reaction [1]: recombinant full-length ATRIP isolated from baculovirus-infected insect cells and an NH2-terminal fragment of ATRIP isolated from bacteria could both be phosphorylated when placed in a kinase reaction with ATR isolated from human cells
- ^32P-labeling in kinase assay [2]: kinase assays with Flag-ATR immunoprecipitated from cells that also expressed Myc-ATRIP revealed ^32P-labeling of co-immunoprecipitated Myc-ATRIP
- phosphorylation in a kinase reaction [3]: recombinant full-length ATRIP isolated from baculovirus-infected insect cells and an NH2-terminal fragment of ATRIP isolated from bacteria could both be phosphorylated when placed in a kinase reaction with ATR isolated from human cells
